Experiment [1] addresses T1, soluble recombinant of cynomolgus monkey FasL (His6, Pro133-Leu280) (UniProt P63308 133-280).
T1 chain: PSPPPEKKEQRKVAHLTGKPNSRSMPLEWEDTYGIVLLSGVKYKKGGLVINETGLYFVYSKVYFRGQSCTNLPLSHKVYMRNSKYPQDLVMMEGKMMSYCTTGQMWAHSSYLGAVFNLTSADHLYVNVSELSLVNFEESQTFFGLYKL
The experiment can be described thus: BIAcore SPR. In a few lines:
(§1)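 The dissociation constant (Kd, nM) reflects binding of each test molecule to soluble recombinant His-tagged human or cynomolgus monkey LIGHT, TL1A or FasL. It was derived from surface plasmon resonance measurements in HBS-EP+ Buffer using a BIAcore T-100 or T-200 instrument (GE Healthcare).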
In general terms: SPR reads the build-up and loss of mass on a sensor chip optically.

Experiment [2] has as its target T2, soluble recombinant of cynomolgus monkey LIGHT (His10, GS linker, Asp74-Val240).
T2 chain: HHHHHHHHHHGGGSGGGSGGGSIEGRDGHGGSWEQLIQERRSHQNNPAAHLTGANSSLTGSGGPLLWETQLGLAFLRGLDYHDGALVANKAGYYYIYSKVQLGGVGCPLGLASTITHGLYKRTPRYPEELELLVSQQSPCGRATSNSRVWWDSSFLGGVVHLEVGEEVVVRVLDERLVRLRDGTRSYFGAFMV
The experiment can be described thus: BIAcore SPR. The method in brief:
as §1

Experiment [3] addresses T3, soluble recombinant of cynomolgus monkey TL1A (His6, GS linker, Leu72-Leu251).
T3 chain: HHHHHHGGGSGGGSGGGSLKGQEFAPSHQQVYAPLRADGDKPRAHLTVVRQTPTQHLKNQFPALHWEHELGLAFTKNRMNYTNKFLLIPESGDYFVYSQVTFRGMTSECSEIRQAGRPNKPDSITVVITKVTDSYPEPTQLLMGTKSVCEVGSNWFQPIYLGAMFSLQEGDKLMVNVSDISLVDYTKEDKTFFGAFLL
The experiment can be described thus: BIAcore SPR. The method in brief: as §1

In experiment [4] the target is T4, FLAG-cynoLIGHT (FLAG tag, cynomolgus monkey LIGHT Asp74-Val240) (cynomolgus monkey).
T4 construct: SEC trimer fraction; also called soluble cynomolgus monkey LIGHT trimer
T4 chain: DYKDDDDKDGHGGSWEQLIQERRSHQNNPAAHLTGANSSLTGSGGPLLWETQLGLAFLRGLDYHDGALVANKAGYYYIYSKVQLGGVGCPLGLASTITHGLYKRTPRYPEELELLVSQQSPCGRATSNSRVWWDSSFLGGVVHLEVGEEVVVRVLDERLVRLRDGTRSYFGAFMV
The experiment in a line: SPR, binder captured on Protein A chip. On the procedure:
(§2) The binding activity to human and cynomolgus monkey DcR3 ligand trimers were analyzed by the SPR method. BIAcore T-100 (GE Healthcare) was used for measurement of the binding activities to human LIGHT, cynomolgus monkey LIGHT, human TL1A and cynomolgus monkey TL1A, and BIAcore T-200 (GE Healthcare) was used for measurement of the binding activities to human FasL and cynomolgus monkey FasL. As the buffer, HBS-EP+Buffer was used.
(§3) Various DcR3 variants were injected into Series S Sensor Chip Protein A (GE Healthcare) at 10 μL/min for 30 seconds and captured. Meanwhile, the buffer containing no protein was injected into a reference flow cell. Thereafter, as an analyte, each human DcR3 ligand trimer or each cynomolgus monkey DcR3 ligand trimer diluted to 0.08 to 20 nmol/L was injected. A human LIGHT trimer, a human TL1A trimer or each cynomolgus monkey DcR3 ligand trimer was injected at the flow rate of 30 μL/min for 2 minutes to monitor the binding, and subsequently the buffer was injected for 5 minutes to monitor dissociation. A human FasL trimer was injected at 30 μL/min for 1 minute to monitor the binding, and subsequently the buffer was injected for 3 minutes to monitor dissociation. Then, 3 mol/L magnesium chloride was injected at 30 μL/min for 1 minute to perform a regeneration reaction.

Experiment [5] addresses T5, soluble recombinant of cynomolgus monkey TL1A (His6, GS linker, Leu72-Leu251) (cynomolgus monkey).
T5 construct: also called His6-cynoTL1A
T5 chain: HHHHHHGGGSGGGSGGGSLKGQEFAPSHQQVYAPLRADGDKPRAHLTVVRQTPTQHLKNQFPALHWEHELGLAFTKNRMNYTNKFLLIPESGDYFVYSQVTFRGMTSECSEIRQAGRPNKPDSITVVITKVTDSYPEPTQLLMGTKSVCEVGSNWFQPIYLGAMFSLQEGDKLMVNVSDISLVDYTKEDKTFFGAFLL
The experiment in a line: SPR, binder captured on Protein A chip. The protocol:
as §2, §3

The target of experiment [6] is T6, Human His6 Fas Ligand/TNFSF6 (Cell Signaling Technology, Inc.) (human, UniProt P48023 133-281).
T6 construct: Bought; confirmed as a trimer by SEC-MALS; also called recombinant human His6 Fas Ligand; soluble human FasL trimer
T6 sequence: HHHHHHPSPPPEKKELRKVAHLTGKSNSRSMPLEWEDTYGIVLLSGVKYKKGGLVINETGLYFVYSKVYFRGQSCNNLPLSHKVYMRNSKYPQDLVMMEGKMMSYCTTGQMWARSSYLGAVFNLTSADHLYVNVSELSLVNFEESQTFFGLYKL
The experiment in a line: SPR, binder captured on Protein A chip. On the procedure: as §2, §3

Experiment [7] concerns the target T7, soluble recombinant of human TL1A (His6, GS linker, Leu72-Leu251) (human, UniProt O95150 72-251).
T7 construct: also called His6-TL1A; hTL1A
T7 sequence: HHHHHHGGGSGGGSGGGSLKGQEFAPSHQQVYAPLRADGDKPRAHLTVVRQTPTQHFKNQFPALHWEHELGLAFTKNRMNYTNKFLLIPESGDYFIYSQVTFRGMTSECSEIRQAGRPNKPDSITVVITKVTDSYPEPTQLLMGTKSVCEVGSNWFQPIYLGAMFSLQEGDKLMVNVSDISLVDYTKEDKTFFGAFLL
The experiment can be described thus: SPR, binder captured on Protein A chip. On the procedure:
as §2, §3

The target of experiment [8] is T8, FLAG-LIGHT (FLAG tag, human LIGHT Asp74-Val240) (human, UniProt O43557 74-240).
T8 construct: SEC trimer fraction; also called soluble recombinant FLAG-LIGHT trimer; soluble human LIGHT trimer
The experiment can be described thus: SPR, binder captured on Protein A chip. The protocol:
as §2, §3

The target in experiment [9] is T9, soluble recombinant of cynomolgus monkey FasL (His6, Pro133-Leu280) (cynomolgus monkey, UniProt P63308 133-280).
T9 construct: also called His6-cynoFasL
T9 sequence: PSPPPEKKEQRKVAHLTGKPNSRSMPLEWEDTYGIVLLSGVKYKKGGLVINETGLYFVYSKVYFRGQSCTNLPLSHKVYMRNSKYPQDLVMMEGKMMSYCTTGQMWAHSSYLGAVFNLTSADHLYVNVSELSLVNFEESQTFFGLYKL
The experiment can be described thus: SPR, binder captured on Protein A chip. The protocol: as §2, §3

The target in experiment [10] is T10, membrane-bound human LIGHT (human, UniProt O43557 1-240).
T10 construct: whole, on cells; also called LIGHT/HEK293
T10 sequence (O43557 whole entry): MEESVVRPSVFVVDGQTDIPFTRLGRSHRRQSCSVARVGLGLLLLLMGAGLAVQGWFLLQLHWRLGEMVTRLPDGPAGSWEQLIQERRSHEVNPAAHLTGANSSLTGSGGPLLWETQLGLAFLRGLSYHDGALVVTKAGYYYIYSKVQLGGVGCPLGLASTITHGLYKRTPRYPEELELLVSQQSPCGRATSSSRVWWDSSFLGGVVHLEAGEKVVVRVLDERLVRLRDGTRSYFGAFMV
The experiment can be described thus: flow cytometry on expressing cells. The method in brief:
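Binding was measured by flow cytometry on HEK293 cells forced to express membrane-bound LIGHT and on cell lines expressing N-terminally Met/FLAG-tagged TL1A or FasL from a CMV-promoter pClpuro vector. Cells at 1×10⁵ cells/well received 1 or 10 μg/mL protein on ice for 1 hour. After washing, cells were stained on ice for 1 hour with LIVE/DEAD Fixable Aqua and R-phycoerythrin goat F(ab′)₂ anti-human IgG (10 ng/mL, 0.1 or 1 μg/mL). Fluorescence was read on a FACS Fortessa.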
On the technique in general: In flow cytometry, cells or beads pass a laser one at a time.

Usually Kd stands for the free concentration of one partner at which half of the binding sites on the other are occupied at equilibrium, for simple one-to-one binding.

B1: chimera A-E57V-Fc (Eg1S YTE) (Fc fusion)
chain: ETFPPKYLHYDEETSHQLLCDKCPPGTYLKQHCTAKWKTVCAPCPPRHYTQFWNYLVRCRYCNVLCGEREEEARACHATHNRACRCRTGFFAHAGFCLEHASCPPGAGVIAPGTPSQNTQCQPCPDGFFSNETSSKAPCRKHTNCSVFGLLLTQKGNATHDNICSGNSESTQKEPKSSDKTHTCPPCPAPELLGGPSVFLFPPKPKDTLYITREPEVTCVVVDVSHEDPEVKFNWYVDGVEVHNAKTKPREEQYNSTYRVVSVLTVLHQDWLNGKEYKCKVSNKALPAPIEKTISKAKGQPREPQVYTLPPSRDELTKNQVSLTCLVKGFYPSDIAVEWESNGQPENNYKTTPPVLDSDGSFFLYSKLTVDKSRWQQGNVFSCSVMHEALHNHYTQKSLSLSPGK
As to B1, the Kd in experiment [1] is 1.1 nM; in experiment [2] it was 0.34 nM; in [3], 0.22 nM. The binding result in experiment [4], in [5], in experiment [6], in experiment [7], in experiment [8] and in [9] was “binds” in each case. For the same molecule, the binding result in experiment [10] is recorded as “binds”.

B2: chimera A-E57K_R58E-Fc (Eg1S LALAGANA) (Fc fusion)
chain: ETFPPKYLHYDEETSHQLLCDKCPPGTYLKQHCTAKWKTVCAPCPPRHYTQFWNYLKECRYCNVLCGEREEEARACHATHNRACRCRTGFFAHAGFCLEHASCPPGAGVIAPGTPSQNTQCQPCPDGFFSNETSSKAPCRKHTNCSVFGLLLTQKGNATHDNICSGNSESTQKEPKSSDKTHTCPPCPAPEAAGAPSVFLFPPKPKDTLMISRTPEVTCVVVDVSHEDPEVKFNWYVDGVEVHNAKTKPREEQYNSTYRVVSVLTVLHQDWLNGKEYKCKVSNKALPAPIEKTISKAKGQPREPQVYTLPPSRDELTKNQVSLTCLVKGFYPSDIAVEWESNGQPENNYKTTPPVLDSDGSFFLYSKLTVDKSRWQQGNVFSCSVMHEALHAHYTQKSLSLSPGK
For B2, the equilibrium dissociation constant (Kd) came to 0.99 nM in [1], 0.28 nM in experiment [2] and 0.17 nM in experiment [3]. Further, the binding result in [4], in experiment [5], in [6], in experiment [7], in experiment [8] and in [9] was “binds” in each case. Besides, the binding result in experiment [10] is “binds”.

B3: chimera A-E57R-Fc (Eg1S YTE) (Fc fusion)
chain: ETFPPKYLHYDEETSHQLLCDKCPPGTYLKQHCTAKWKTVCAPCPPRHYTQFWNYLRRCRYCNVLCGEREEEARACHATHNRACRCRTGFFAHAGFCLEHASCPPGAGVIAPGTPSQNTQCQPCPDGFFSNETSSKAPCRKHTNCSVFGLLLTQKGNATHDNICSGNSESTQKEPKSSDKTHTCPPCPAPELLGGPSVFLFPPKPKDTLYITREPEVTCVVVDVSHEDPEVKFNWYVDGVEVHNAKTKPREEQYNSTYRVVSVLTVLHQDWLNGKEYKCKVSNKALPAPIEKTISKAKGQPREPQVYTLPPSRDELTKNQVSLTCLVKGFYPSDIAVEWESNGQPENNYKTTPPVLDSDGSFFLYSKLTVDKSRWQQGNVFSCSVMHEALHNHYTQKSLSLSPGK
With B3, the results for the Kd in experiment [1], in experiment [2] and in [3] were 1.2 nM, 0.3 nM and 0.36 nM, respectively. Moreover, the binding result in experiment [4], in [5], in [6], in experiment [7], in experiment [8] and in [9] was “binds” in each case. Besides, the binding result in experiment [10] is given as “binds”.

B4: chimera A-E57K-Fc (Eg1S LALAGANA) (Fc fusion)
chain: ETFPPKYLHYDEETSHQLLCDKCPPGTYLKQHCTAKWKTVCAPCPPRHYTQFWNYLKRCRYCNVLCGEREEEARACHATHNRACRCRTGFFAHAGFCLEHASCPPGAGVIAPGTPSQNTQCQPCPDGFFSNETSSKAPCRKHTNCSVFGLLLTQKGNATHDNICSGNSESTQKEPKSSDKTHTCPPCPAPEAAGAPSVFLFPPKPKDTLMISRTPEVTCVVVDVSHEDPEVKFNWYVDGVEVHNAKTKPREEQYNSTYRVVSVLTVLHQDWLNGKEYKCKVSNKALPAPIEKTISKAKGQPREPQVYTLPPSRDELTKNQVSLTCLVKGFYPSDIAVEWESNGQPENNYKTTPPVLDSDGSFFLYSKLTVDKSRWQQGNVFSCSVMHEALHAHYTQKSLSLSPGK
In the case of B4, the Kd was 1.1 nM in experiment [1], 0.28 nM in [2] and 0.27 nM in [3]. The binding result in experiment [4], in [5], in experiment [6], in [7], in [8] and in experiment [9] was “binds” in each case. Moreover, in [10], the binding result was “binds”.

B5: chimera A-E57V-Fc (Eg1S LALAGANA) (Fc fusion)
chain: ETFPPKYLHYDEETSHQLLCDKCPPGTYLKQHCTAKWKTVCAPCPPRHYTQFWNYLVRCRYCNVLCGEREEEARACHATHNRACRCRTGFFAHAGFCLEHASCPPGAGVIAPGTPSQNTQCQPCPDGFFSNETSSKAPCRKHTNCSVFGLLLTQKGNATHDNICSGNSESTQKEPKSSDKTHTCPPCPAPEAAGAPSVFLFPPKPKDTLMISRTPEVTCVVVDVSHEDPEVKFNWYVDGVEVHNAKTKPREEQYNSTYRVVSVLTVLHQDWLNGKEYKCKVSNKALPAPIEKTISKAKGQPREPQVYTLPPSRDELTKNQVSLTCLVKGFYPSDIAVEWESNGQPENNYKTTPPVLDSDGSFFLYSKLTVDKSRWQQGNVFSCSVMHEALHAHYTQKSLSLSPGK
With B5, the Kd in experiment [1] came out at 1.1 nM; in experiment [2] it was 0.35 nM; in [3] it was 0.21 nM. For the same molecule, the binding result in experiment [4], in experiment [5], in experiment [6], in experiment [7], in [8] and in [9] was “binds” each time. Moreover, the binding result in experiment [10] was “binds”.

These data come from patent US20220340642A1 (Kyowa Kirin, published 2022).
